Source: PMC10310818

Target: 2b-3×Flag (pGD-2b-3×Flag) (cucumber mosaic virus (CMV)) (UniProt Q66125)

VISP1-GFP (pGDGm-VISP1-GFP) (natural protein)
accumulation of 2b-Flag co-expressed with VISP1-Myc, relative to empty vector (immunoblot, N. benthamiana leaves, 60 hpi): 0.11 fold
